Test [1] addresses T1, human TL1A extracellular domain with N-terminal HIS and FLAG tag (human, UniProt O95150 72-251).
T1 construct: the whole entry is named
T1 sequence: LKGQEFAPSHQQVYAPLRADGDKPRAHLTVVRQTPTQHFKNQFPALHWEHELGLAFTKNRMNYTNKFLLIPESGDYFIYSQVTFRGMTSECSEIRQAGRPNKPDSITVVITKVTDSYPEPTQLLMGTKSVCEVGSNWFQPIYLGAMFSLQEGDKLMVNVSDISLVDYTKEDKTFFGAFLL
Put plainly: SPR Run 4, purified Ab captured on Protein A, TL1A 5 ug/mL, timepoint 220. An excerpt:
(§1) 1.5. Antibody expression and antigen binding as determined by SPR. Using a CM5 sensor chip (GE Healthcare) Protein A (Pierce) was coupled to the chip surface using an amine coupling kit (GE Healthcare). Protein A was coupled on flow cell 1 and 2 (or alternatively 3 and 4) using a BIACORE® T200. […] The amount of supernatant or purified protein (as well as the concentration) injected during the capture stage varied between runs and is specified in the header of the Tables 3-11. At the end of injection of the supernatant or purified antibody the change in response units was measured. This value was reported as Capture Level in Tables 3-11. […] The response units were measured prior to the end of the dissociation phase. […] The sensorgrams were double referenced (flow cell 2 is subtracted from flow cell 1 and a buffer blank). As there were a large number of antibody variants to screen, these were screened across different runs (Tables 3-11). […] A summary of the conditions used in each run is below:
(§2) 2.1. […] In some experiment the antibodies were purified using Protein A chromatography (See 1.4) and purified antibodies were used in BIACORE® (GE Healthcare) experiments.

In test [2] the target is T2, human TL1A extracellular domain with N-terminal HIS and FLAG tag (human) (UniProt O95150).
T2 sequence: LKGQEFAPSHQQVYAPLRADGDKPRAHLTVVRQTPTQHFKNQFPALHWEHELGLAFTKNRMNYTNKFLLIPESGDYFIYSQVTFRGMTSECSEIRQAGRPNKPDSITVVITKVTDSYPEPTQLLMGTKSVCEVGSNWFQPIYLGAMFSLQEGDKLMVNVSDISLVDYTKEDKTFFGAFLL
As to the kind of experiment: cell-based or functional assay.

Test [3] deals with T1, human TL1A extracellular domain with …. Put plainly: SPR Run 4, purified Ab captured on Protein A, TL1A 5 ug/mL, timepoint 44.
From the text: as §1, §2

Test [4] shares this target. As to the kind of experiment: SPR Run 6, purified Ab captured on Protein A, TL1A 5 ug/mL, timepoint 44.
From the text: as §1, §2

For test [5] the target is unchanged. As to the kind of experiment: SPR Run 6, purified Ab captured on Protein A, TL1A 5 ug/mL, timepoint 170.
From the text: as §1, §2

B1: 320-313 (antibody, human IgG1, name in Kabat numbering, V domains shown)
VH: QVQLVQSGAEVKKPGASVKVSCKASGYTFTSYDINWVRQAPGQGLEWMGWLNPNSGNTGYAQKFQGRVTMTADRSTSTAYMELSSLRSEDTAVYYCAREVPETAAFEYWGQGTLVTVSS
VL: QSVLTQPPSVSGAPGQRVTISCTSSSSDIGAGLGVHWYQQLPGTAPKLLIEGYYNRPSGVPDRFSGSKSGTSASLTITGLLPEDEGDYYCHSYDGTLSALFGGGTKLTVLG
notes: human IgG1, lambda
B1: the “TL1A Binding Level (Late)” value in test [1] amounted to 132 RU. In test [2], the Antibody IC50, TL1A induced caspase potency assay in TF-1 cells was determined as 0.02 µg/mL and the Fold improvement over 320-179, TL1A induced caspase potency assay in TF-1 cells stood at 2 fold. The “TL1A Binding Level (Early)” value in test [3] came to 141 RU.

B2: 320-433 (antibody, human IgG1, name in Kabat numbering, V domains shown)
VH: QVQLVQSGAEVKKPGASVKVSCKASGYTFTDYDINWVRQAPGQGLEWMGWLNPNSGNTGYAQKFQGRVTMTADRSTSTAYMELSSLRSEDTAVYYCAREVPETAAFEYWGQGTLVTVSS
VL: QSVLTQPPSVSGAPGQRVTISCTSSSSDIGAGLGVHWYQQLPGTAPKLLIEGYYNRPSGVPDRFSGSKSGTSASLTITGLLPEDEGDYYCQSYDGTLSALFGGGTKLTVLG
notes: human IgG1, lambda
As to B2, in test [4], the “TL1A Binding Level (Early)” value is 90 RU. Further, the “TL1A Binding Level (Late)” value in test [5] was determined as 83 RU.

B3: 320-435 (antibody, human IgG1, name in Kabat numbering, V domains shown)
VH: QVQLVQSGAEVKKPGASVKVSCKASGYTFTLYDINWVRQAPGQGLEWMGWLNPNSGNTGYAQKFQGRVTMTADRSTSTAYMELSSLRSEDTAVYYCAREVPETAAFEYWGQGTLVTVSS
VL: QSVLTQPPSVSGAPGQRVTISCTSSSSDIGAGLGVHWYQQLPGTAPKLLIEGYYNRPSGVPDRFSGSKSGTSASLTITGLLPEDEGDYYCQSYDGTLSALFGGGTKLTVLG
notes: human IgG1, lambda
B3: the “TL1A Binding Level (Early)” value in test [4] is 92 RU. In test [5], the “TL1A Binding Level (Late)” value was determined as 83 RU.

B4: 320-369 (antibody, human IgG1, name in Kabat numbering, V domains shown)
VH: QVQLVQSGAEVKKPGASVKVSCKASGYTFTSYDINWVRQAPGQGLEWMGWLNPNSGNTGYAQKFQGRVTMTADRSTSTAYMELSSLRSEDTAVYYCAREVPETAAFEYWGQGTLVTVSS
VL: QSVLTQPPSVSGAPGQRVTISCTSSSSDIGAGLGVHWYQQLPGTAPKLLIEGYYNRPSGVPDRFSGSKSGTSASLTITGLLPEDEGDYYCQSYDGTLLALFGGGTKLTVLG
notes: human IgG1, lambda
As for B4, the “TL1A Binding Level (Late)” value in test [1] came out at 60 RU. Further, in test [3], the “TL1A Binding Level (Early)” value was determined as 89 RU.

B5: 320-318 (antibody, human IgG1, name in Kabat numbering, V domains shown)
VH: QVQLVQSGAEVKKPGASVKVSCKASGYTFTSYDINWVRQAPGQGLEWMGWLNPNSGNTGYAQKFQGRVTMTADRSTSTAYMELSSLRSEDTAVYYCAREVPETAAFEYWGQGTLVTVSS
VL: QSVLTQPPSVSGAPGQRVTISCTSSSSDIGAGLGVHWYQQLPGTAPKLLIEGYYNRPSGVPDRFSGSKSGTSASLTITGLLPEDEGDYYCQAYDGTLSALFGGGTKLTVLG
notes: human IgG1, lambda
As for B5, the “TL1A Binding Level (Late)” value in test [1] is 149 RU. In test [2], this molecule displayed an Antibody IC50, TL1A induced caspase potency assay in TF-1 cells of 0.02 µg/mL and a Fold improvement over 320-179, TL1A induced caspase potency assay in TF-1 cells of 3 fold. Besides, in test [3], the “TL1A Binding Level (Early)” value is 160 RU.

B6: 320-370 (antibody, human IgG1, name in Kabat numbering, V domains shown)
VH: QVQLVQSGAEVKKPGASVKVSCKASGYTFTSYDINWVRQAPGQGLEWMGWLNPNSGNTGYAQKFQGRVTMTADRSTSTAYMELSSLRSEDTAVYYCAREVPETAAFEYWGQGTLVTVSS
VL: QSVLTQPPSVSGAPGQRVTISCTSSSSDIGAGLGVHWYQQLPGTAPKLLIEGYYNRPSGVPDRFSGSKSGTSASLTITGLLPEDEGDYYCQSYDGTLWALFGGGTKLTVLG
notes: human IgG1, lambda
With B6, in test [1], the “TL1A Binding Level (Late)” value turned out to be 39 RU. Further, the “TL1A Binding Level (Early)” value in test [3] was found to be 66 RU.

B7: 320-314 (antibody, human IgG1, name in Kabat numbering, V domains shown)
VH: QVQLVQSGAEVKKPGASVKVSCKASGYTFTSYDINWVRQAPGQGLEWMGWLNPNSGNTGYAQKFQGRVTMTADRSTSTAYMELSSLRSEDTAVYYCAREVPETAAFEYWGQGTLVTVSS
VL: QSVLTQPPSVSGAPGQRVTISCTSSSSDIGAGLGVHWYQQLPGTAPKLLIEGYYNRPSGVPDRFSGSKSGTSASLTITGLLPEDEGDYYCKSYDGTLSALFGGGTKLTVLG
notes: human IgG1, lambda
For the molecule B7, in test [1], the “TL1A Binding Level (Late)” value came to 158 RU. Besides, in test [2], the Antibody IC50, TL1A induced caspase potency assay in TF-1 cells is 0.02 µg/mL and the Fold improvement over 320-179, TL1A induced caspase potency assay in TF-1 cells stood at 2 fold. Further, in test [3], the “TL1A Binding Level (Early)” value was 165 RU.

B8: 320-326 (antibody, human IgG1, name in Kabat numbering, V domains shown)
VH: QVQLVQSGAEVKKPGASVKVSCKASGYTFTSYDINWVRQAPGQGLEWMGWLNPNSGNTGYAQKFQGRVTMTADRSTSTAYMELSSLRSEDTAVYYCAREVPETAAFEYWGQGTLVTVSS
VL: QSVLTQPPSVSGAPGQRVTISCTSSSSDIGAGLGVHWYQQLPGTAPKLLIEGYYNRPSGVPDRFSGSKSGTSASLTITGLLPEDEGDYYCQSSDGTLSALFGGGTKLTVLG
notes: human IgG1, lambda
In the case of B8, in test [1], the “TL1A Binding Level (Late)” value turned out to be 120 RU. In test [2], the Antibody IC50, TL1A induced caspase potency assay in TF-1 cells turned out to be 0.03 µg/mL and the Fold improvement over 320-179, TL1A induced caspase potency assay in TF-1 cells was 2 fold. In addition, the “TL1A Binding Level (Early)” value in test [3] was 126 RU.

B9: 320-368 (antibody, human IgG1, name in Kabat numbering, V domains shown)
VH: QVQLVQSGAEVKKPGASVKVSCKASGYTFTSYDINWVRQAPGQGLEWMGWLNPNSGNTGYAQKFQGRVTMTADRSTSTAYMELSSLRSEDTAVYYCAREVPETAAFEYWGQGTLVTVSS
VL: QSVLTQPPSVSGAPGQRVTISCTSSSSDIGAGLGVHWYQQLPGTAPKLLIEGYYNRPSGVPDRFSGSKSGTSASLTITGLLPEDEGDYYCQSYDGTLKALFGGGTKLTVLG
notes: human IgG1, lambda
For B9, the “TL1A Binding Level (Late)” value in test [1] came to 26 RU. Moreover, the “TL1A Binding Level (Early)” value in test [3] was 50 RU.

B10: 320-328 (antibody, human IgG1, name in Kabat numbering, V domains shown)
VH: QVQLVQSGAEVKKPGASVKVSCKASGYTFTSYDINWVRQAPGQGLEWMGWLNPNSGNTGYAQKFQGRVTMTADRSTSTAYMELSSLRSEDTAVYYCAREVPETAAFEYWGQGTLVTVSS
VL: QSVLTQPPSVSGAPGQRVTISCTSSSSDIGAGLGVHWYQQLPGTAPKLLIEGYYNRPSGVPDRFSGSKSGTSASLTITGLLPEDEGDYYCQSHDGTLSALFGGGTKLTVLG
notes: human IgG1, lambda
B10: the “TL1A Binding Level (Late)” value in test [1] was determined as 146 RU. Also, in test [2], the Antibody IC50, TL1A induced caspase potency assay in TF-1 cells was 0.02 µg/mL and the Fold improvement over 320-179, TL1A induced caspase potency assay in TF-1 cells was determined as 1 fold. Also, the “TL1A Binding Level (Early)” value in test [3] amounted to 155 RU.

B11: 320-345 (antibody, human IgG1, name in Kabat numbering, V domains shown)
VH: QVQLVQSGAEVKKPGASVKVSCKASGYTFTSYDINWVRQAPGQGLEWMGWLNPNSGNTGYAQKFQGRVTMTADRSTSTAYMELSSLRSEDTAVYYCAREVPETAAFEYWGQGTLVTVSS
VL: QSVLTQPPSVSGAPGQRVTISCTSSSSDIGAGLGVHWYQQLPGTAPKLLIEGYYNRPSGVPDRFSGSKSGTSASLTITGLLPEDEGDYYCQSYDKTLSALFGGGTKLTVLG
notes: human IgG1, lambda
In the case of B11, the “TL1A Binding Level (Late)” value in test [1] was found to be 154 RU. In test [2], this molecule returned an Antibody IC50, TL1A induced caspase potency assay in TF-1 cells of 0.02 µg/mL and a Fold improvement over 320-179, TL1A induced caspase potency assay in TF-1 cells of 1 fold. Moreover, in test [3], the “TL1A Binding Level (Early)” value was determined as 163 RU.

B12: 320-432 (antibody, human IgG1, name in Kabat numbering, V domains shown)
VH: QVQLVQSGAEVKKPGASVKVSCKASGYTFTQYDINWVRQAPGQGLEWMGWLNPNSGNTGYAQKFQGRVTMTADRSTSTAYMELSSLRSEDTAVYYCAREVPETAAFEYWGQGTLVTVSS
VL: QSVLTQPPSVSGAPGQRVTISCTSSSSDIGAGLGVHWYQQLPGTAPKLLIEGYYNRPSGVPDRFSGSKSGTSASLTITGLLPEDEGDYYCQSYDGTLSALFGGGTKLTVLG
notes: human IgG1, lambda
Consider B12, for which, in test [4], the “TL1A Binding Level (Early)” value worked out at 116 RU. The “TL1A Binding Level (Late)” value in test [5] is 106 RU.

B13: 320-371 (antibody, human IgG1, name in Kabat numbering, V domains shown)
VH: QVQLVQSGAEVKKPGASVKVSCKASGYTFTSYDINWVRQAPGQGLEWMGWLNPNSGNTGYAQKFQGRVTMTADRSTSTAYMELSSLRSEDTAVYYCAREVPETAAFEYWGQGTLVTVSS
VL: QSVLTQPPSVSGAPGQRVTISCTSSSSDIGAGLGVHWYQQLPGTAPKLLIEGYYNRPSGVPDRFSGSKSGTSASLTITGLLPEDEGDYYCQSYDGTLYALFGGGTKLTVLG
notes: human IgG1, lambda
With B13, the “TL1A Binding Level (Late)” value in test [1] amounted to 70 RU. In test [3], the “TL1A Binding Level (Early)” value was determined as 92 RU.

B14: 320-434 (antibody, human IgG1, name in Kabat numbering, V domains shown)
VH: QVQLVQSGAEVKKPGASVKVSCKASGYTFTKYDINWVRQAPGQGLEWMGWLNPNSGNTGYAQKFQGRVTMTADRSTSTAYMELSSLRSEDTAVYYCAREVPETAAFEYWGQGTLVTVSS
VL: QSVLTQPPSVSGAPGQRVTISCTSSSSDIGAGLGVHWYQQLPGTAPKLLIEGYYNRPSGVPDRFSGSKSGTSASLTITGLLPEDEGDYYCQSYDGTLSALFGGGTKLTVLG
notes: human IgG1, lambda
On to B14, for which, in test [4], the “TL1A Binding Level (Early)” value amounted to 125 RU. The “TL1A Binding Level (Late)” value in test [5] was found to be 113 RU.
